Here are results for 1 molecule from patent US20040067903A1 (published 2004).

Holding throughout (experiment): GST pull-down from GDP+AlF4- treated human platelet lysate, western blot
For orientation: Immunoblotting shows a protein as a band on a membrane.

Test [1] concerns the target T1, Gαs (endogenous, human platelet lysate) (human, UniProt P63092 2-394).
T1 construct: mature
As to the method:
(§1) Bound antibody was detected using goat […] (BioRad, Hercules, Calif.) and Supersignal West Pico ECL reagent (Pierce, Rockford, Ill.).
(§2) In order to determine the target alpha subunits of RGS18, binding experiments were performed using GST-RGS18 as prepared in Example 4 and lysates of human platelets. A similar method has been used to determine the binding specificity of hRGS16 using lysates from Jurkat cells (164). […] For these experiments, platelets were lysed in a Triton X-100 containing buffer and resuspended to 1 mg/ml. The lysate was then treated with GDP, which holds the alpha subunit in the GDP-bound “in-activated” state, or GDP+AlF₄⁻ that mimics the transition state of the Gα subunit. Recombinant GST-RGS18 bound to Sepharose-4 beads was added to the treated lysates, incubated and washed several times. Bound protein was eluted in Laemmli buffer and subjected to SDS-PAGE followed by western blot analysis. A panel of G protein alpha subunit specific antibodies was used to determine which alpha subunits bind to RGS18. […] In contrast, in lysates that have been treated with GDP+AlF₄⁻, RGS18 binds a significant amount of alpha subunit detected by antibodies directed against G_{αi1/2}, G_{α0/i3} and G_{αq/11}. […] Neither GST nor Sepharose 4B alone binds to any of these alpha subunits in either GDP or GDP+AlF₄⁻ treated platelet lysates (data not shown). The binding selectivity of RGS18 is consistent with that found for other RGS proteins which selectively bind to members of the Gαi family and/or Gαq family (14).

For test [2], the target named is T2, Gα12 (endogenous, human platelet lysate) (human, UniProt Q03113 1-381).
T2 construct: mature
T2 sequence (looked up): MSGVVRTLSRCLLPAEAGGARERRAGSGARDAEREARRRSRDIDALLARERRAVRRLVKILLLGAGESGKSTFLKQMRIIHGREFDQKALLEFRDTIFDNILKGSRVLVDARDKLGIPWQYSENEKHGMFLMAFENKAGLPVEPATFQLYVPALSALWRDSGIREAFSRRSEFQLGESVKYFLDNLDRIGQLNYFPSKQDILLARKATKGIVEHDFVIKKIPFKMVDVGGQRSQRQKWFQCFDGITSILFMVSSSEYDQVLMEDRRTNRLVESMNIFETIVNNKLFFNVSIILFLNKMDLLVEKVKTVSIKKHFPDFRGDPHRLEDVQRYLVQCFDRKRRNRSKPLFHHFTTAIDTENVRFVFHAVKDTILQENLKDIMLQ
The protocol: as §1, §2

The target of test [3] is T3, Gαq (endogenous, human platelet lysate) (human, UniProt P50148 1-359).
T3 construct: mature; also called Gαq/11; alpha subunit detected by antibodies directed against Gαq/11
T3 sequence (looked up): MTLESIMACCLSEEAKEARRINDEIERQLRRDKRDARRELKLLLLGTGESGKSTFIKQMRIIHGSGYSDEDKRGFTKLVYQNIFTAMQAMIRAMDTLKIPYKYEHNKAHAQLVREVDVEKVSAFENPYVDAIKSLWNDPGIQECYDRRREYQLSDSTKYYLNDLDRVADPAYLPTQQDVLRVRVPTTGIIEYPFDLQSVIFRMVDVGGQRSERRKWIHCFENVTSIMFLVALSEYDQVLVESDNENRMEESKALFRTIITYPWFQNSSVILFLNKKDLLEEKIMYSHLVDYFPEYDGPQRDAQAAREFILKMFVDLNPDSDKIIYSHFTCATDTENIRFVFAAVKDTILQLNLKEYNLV
The protocol:
as §1, §2

Test [4] deals with T4, Gαz (endogenous, human platelet lysate) (human, UniProt P19086 2-355).
T4 construct: mature; also called printed once as Gα2
As to the method:
as §1, §2

T4 sequence (P19086 2-355): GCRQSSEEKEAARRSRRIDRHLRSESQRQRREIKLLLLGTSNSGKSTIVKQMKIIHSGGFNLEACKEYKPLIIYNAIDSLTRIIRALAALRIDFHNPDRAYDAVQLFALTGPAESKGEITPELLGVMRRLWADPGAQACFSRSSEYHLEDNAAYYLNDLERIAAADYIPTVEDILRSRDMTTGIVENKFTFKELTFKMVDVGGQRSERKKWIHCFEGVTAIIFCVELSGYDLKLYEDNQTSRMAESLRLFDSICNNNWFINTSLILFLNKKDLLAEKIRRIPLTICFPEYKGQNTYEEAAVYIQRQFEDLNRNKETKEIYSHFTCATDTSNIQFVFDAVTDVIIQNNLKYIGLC
T1 sequence (P63092 2-394): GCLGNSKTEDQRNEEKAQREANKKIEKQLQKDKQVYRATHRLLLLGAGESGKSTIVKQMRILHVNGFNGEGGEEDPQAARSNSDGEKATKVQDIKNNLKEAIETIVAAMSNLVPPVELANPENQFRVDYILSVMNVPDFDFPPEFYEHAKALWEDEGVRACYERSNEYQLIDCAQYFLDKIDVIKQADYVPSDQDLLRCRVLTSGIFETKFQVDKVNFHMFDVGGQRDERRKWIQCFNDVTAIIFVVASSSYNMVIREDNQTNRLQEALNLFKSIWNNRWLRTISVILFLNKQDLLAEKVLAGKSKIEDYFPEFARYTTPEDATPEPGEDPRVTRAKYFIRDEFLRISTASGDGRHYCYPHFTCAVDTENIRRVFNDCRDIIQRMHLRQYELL

B1: GST-RGS18 fusion protein coupled to glutathione-Sepharose 4B (other)
chain: METTLLFFSQINMCESKEKTFFKLIHGSGKEETSKEAKIRAKEKRNRLSLLVQKPEFHEDTRSSRSGHLAKETRVSPEEAVKWGESFDKLLSHRDGLEAFTRFLKTEFSEENIEFWIACEDFKKSKGPQQIHLKAKAIYEKFIQTDAPKEVNLDFHTKEVITNSITQPTLHSFDAAQSRVYQLMEQDSYTRFLKSDIYLDLMEGRPQRPTNLRRRSRSFTCNEFQDVQSDVAIWL
notes: The sense primer carries a few nucleotides upstream of the ATG, so a short extra linker between GST and Met1 is likely; also called recombinant GST-RGS18; GST-tagged fusion protein of RGS18; not shown: glutathione S-transferase (GST) tag encoded by plasmid pGEX-5X-1, N-terminal to RGS18 (in-frame Bam HI fusion); the fili
For the molecule B1, the binding result in test [1] is “no binding”; in test [2] it was “no binding”; in test [3], “binds”; in test [4], “no binding”.
